Assays:
[1] = molecular target: ICAM-1-Fc (Homo sapiens (Human)) (UniProt P05362); experiment: laminar flow adhesion assay, human T cells on coated ICAM-1-Fc
CCR2 (mouse) = CCR2 (mouse) (UniProt P51683); experiment: cell-based or functional assay
UniProt P51683, sequence (P51683 whole entry): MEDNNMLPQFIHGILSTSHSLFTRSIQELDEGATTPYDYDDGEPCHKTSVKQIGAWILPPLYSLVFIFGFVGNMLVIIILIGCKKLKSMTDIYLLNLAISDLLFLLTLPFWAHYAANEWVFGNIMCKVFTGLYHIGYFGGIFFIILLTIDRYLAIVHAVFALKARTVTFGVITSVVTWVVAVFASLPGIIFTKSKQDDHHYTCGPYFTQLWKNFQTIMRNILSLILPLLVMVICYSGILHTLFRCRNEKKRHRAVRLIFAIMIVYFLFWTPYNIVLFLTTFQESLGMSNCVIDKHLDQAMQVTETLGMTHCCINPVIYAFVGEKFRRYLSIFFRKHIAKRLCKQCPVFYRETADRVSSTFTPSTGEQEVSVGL

LFA-1, sequence (P20701 26-1170): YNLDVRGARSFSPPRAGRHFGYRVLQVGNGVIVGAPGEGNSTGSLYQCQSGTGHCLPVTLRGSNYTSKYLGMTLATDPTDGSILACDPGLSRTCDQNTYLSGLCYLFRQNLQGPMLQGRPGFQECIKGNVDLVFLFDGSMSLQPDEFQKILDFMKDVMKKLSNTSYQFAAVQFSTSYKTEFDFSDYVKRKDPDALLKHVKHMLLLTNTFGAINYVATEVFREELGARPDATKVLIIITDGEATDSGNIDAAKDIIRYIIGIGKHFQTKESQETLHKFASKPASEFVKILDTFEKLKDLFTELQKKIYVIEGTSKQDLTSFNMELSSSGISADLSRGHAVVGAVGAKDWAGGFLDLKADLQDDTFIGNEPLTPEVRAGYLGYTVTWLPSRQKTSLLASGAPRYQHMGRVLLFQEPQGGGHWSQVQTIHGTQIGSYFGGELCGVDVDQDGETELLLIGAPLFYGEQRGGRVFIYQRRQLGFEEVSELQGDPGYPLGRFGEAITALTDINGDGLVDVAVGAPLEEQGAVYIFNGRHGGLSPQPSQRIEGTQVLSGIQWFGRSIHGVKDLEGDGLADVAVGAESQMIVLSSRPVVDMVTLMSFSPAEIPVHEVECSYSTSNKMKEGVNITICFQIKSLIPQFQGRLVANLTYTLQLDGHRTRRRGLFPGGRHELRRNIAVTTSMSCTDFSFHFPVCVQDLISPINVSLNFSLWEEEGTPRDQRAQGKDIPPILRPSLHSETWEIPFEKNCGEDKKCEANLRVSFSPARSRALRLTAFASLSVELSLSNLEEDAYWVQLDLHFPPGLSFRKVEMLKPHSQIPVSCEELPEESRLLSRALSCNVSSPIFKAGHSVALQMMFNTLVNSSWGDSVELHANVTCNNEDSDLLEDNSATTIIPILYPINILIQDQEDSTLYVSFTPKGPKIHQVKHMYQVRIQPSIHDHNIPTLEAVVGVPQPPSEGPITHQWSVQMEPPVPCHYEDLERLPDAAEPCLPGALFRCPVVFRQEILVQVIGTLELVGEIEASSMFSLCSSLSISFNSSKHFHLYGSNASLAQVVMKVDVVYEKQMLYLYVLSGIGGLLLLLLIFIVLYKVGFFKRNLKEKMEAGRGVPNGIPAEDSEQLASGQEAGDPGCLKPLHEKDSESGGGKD
LFA-1, sequence (P05107 23-769, further chain): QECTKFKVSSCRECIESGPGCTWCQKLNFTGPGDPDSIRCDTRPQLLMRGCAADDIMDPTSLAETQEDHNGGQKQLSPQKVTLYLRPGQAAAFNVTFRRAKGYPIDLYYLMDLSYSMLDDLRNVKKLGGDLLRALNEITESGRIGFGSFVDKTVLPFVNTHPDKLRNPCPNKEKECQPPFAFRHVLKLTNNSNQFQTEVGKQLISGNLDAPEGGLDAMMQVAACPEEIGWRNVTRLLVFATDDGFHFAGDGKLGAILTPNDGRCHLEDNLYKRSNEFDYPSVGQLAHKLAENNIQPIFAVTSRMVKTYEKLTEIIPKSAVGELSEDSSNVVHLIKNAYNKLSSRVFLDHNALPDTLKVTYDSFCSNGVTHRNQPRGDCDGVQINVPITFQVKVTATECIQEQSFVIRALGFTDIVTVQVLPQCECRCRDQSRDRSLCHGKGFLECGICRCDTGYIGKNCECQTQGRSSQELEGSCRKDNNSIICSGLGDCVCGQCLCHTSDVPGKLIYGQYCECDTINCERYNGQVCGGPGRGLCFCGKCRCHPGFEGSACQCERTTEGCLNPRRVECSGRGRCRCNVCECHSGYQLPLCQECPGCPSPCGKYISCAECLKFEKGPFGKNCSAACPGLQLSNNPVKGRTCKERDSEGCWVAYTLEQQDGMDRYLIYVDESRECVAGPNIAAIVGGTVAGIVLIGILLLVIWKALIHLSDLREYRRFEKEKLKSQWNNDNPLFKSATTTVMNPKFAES
UniProt P05362, sequence (P05362 28-480 limits assumed): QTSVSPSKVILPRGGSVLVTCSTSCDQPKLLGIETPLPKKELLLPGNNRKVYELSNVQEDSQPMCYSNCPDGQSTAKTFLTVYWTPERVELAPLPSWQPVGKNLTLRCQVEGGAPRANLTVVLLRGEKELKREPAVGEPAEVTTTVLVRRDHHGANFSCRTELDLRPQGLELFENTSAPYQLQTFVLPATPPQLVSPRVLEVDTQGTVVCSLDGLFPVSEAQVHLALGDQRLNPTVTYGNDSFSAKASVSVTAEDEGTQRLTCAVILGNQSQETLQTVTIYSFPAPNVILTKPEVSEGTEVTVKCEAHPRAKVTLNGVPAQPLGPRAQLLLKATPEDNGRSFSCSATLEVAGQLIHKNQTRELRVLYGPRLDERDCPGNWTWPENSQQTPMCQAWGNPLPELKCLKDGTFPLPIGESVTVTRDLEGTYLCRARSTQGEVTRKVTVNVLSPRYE

percent of cellular tethers to ICAM-1 blocked by LFA-1 blockers [1] [%]	decrease in actin polymerization of naive T cells induced by CXCL12 or CCL21 (FITC-phalloidin, FACS) (CCR2 (mouse)) [%]	decrease in migration of naive T cells in a Transwell assay towards CXCL12 or CCL21 after pretreatment with CCL2 (0.1 ng/ml) (CCR2 (mouse)) [%]	Substance
> 90	–	–	LFA-1 (from UniProt P20701 26-1170; P05107 23-769) (receptor; other documents disagree on this pair)
–	40 to 50	40 to 50	CCL2 (ligand)

— US20110165116A1
